Positions of bridges follow the written chain, without caps; N, C: chain ends. Non-standard residues stand in square brackets, D forms with d. Residues, ends and D or L forms follow the SMILES beside them. S5 = C=CCCC[C@](C)(N)C(=O)O
How the values were obtained:
[1] = target: T1, BclxLΔLT (Homo sapiens, UniProt Q07817, DEL45-84); test: NMR-detected affinity measurement, alanine scanning of VDAC1-N peptides; format: binding; settings: NMR CSP titration into 100 µM 2H,15N BclxLΔLT, 20 mM NaPi pH 7.0, 50 mM NaCl; one-site model; mean of individual NMR resonances as probes (n = 3)
T1 construct: BclxLΔLT (residues 1–44 and 85–213); inferred from Ni-NTA purification; made in house; host or cells: E. coli BL21 (DE3)
Excerpt: The resulting chemical shift perturbation was plotted against the peptide concentration to extract KD values for each peptide using a one-site binding model using OriginPro (OriginLab) for data fitting.

[2] = tested on: Bak-BclxL complex; test: Liposome permeabilization (pore-forming) assay, cBid-activated Bak inhibited by BclxL; format: biochemical, human; settings: increasing concentrations of peptide (10-100 µM); 50 nM BakΔTM, 40 nM cBid, 50 nM BclxLΔTM
[3] = target: human BclxLΔTM (soluble domain of BclxL, transmembrane helix deleted) (human) (UniProt Q07817)
[4] = target: human BclxLΔLT (BclxL without the flexible loop and the transmembrane helix) (human) (UniProt Q07817); test: ITC; MicroCal PEAQ-ITC, 20 °C; BclxLΔLT in the cell (250 µM for the linear, 50 µM for the stapled peptide), peptide in the syringe (500 µM stapled); 10 mM NaPi pH 7.0, 50 mM NaCl, 0.5 mM EDTA, 1 mM DTT
[5] = target: T2, human BclxLΔTM (soluble domain of BclxL, transmembrane helix deleted) (human, UniProt Q07817-1 1-212); test: NMR titration; 100 µM 15N-labelled VDAC1-N peptide with a 5-fold excess of unlabelled BclxLΔTM; 20 mM NaPi pH 7.0, 50 mM NaCl, 303 K, 500 MHz; settings: both partners purified
T2 construct: BclxL, human, soluble domain without the transmembrane helix, residues 1-212 (the NMR methods say 1-213); 2H,15N-labelled where it was the observed species in NMR; source: E. coli BL21 (DE3), purified (Ni-NTA, SEC)

[6] = target: T3, human BclxLΔLT (BclxL without the flexible loop and the transmembrane helix) (human, UniProt Q07817-1 1-212, flexible loop (residues 44–84) deleted); test: crystal structure; single-chain BclxLΔLT-VDAC1-N construct, crystal from 1.6 M ammonium sulfate, 0.1 M bicine pH 9.0, 292 K; 1.95 Å; settings: both partners purified
T3 construct: BclxL, human, residues 1-43 and 85-212 (flexible loop 44-84 and transmembrane helix deleted); the NMR methods say 1-44 and 85-213; Isotope-labelled for NMR; In the crystal it stood fused to VDAC1-N(1-26) on one chain; source: E. coli BL21 (DE3), purified (Ni-NTA, SEC)

[7] = target: T4, human BclxLΔLT (BclxL without the flexible loop and the transmembrane helix), Q07817-1; test: NMR-detected affinity measurements (alanine scanning); settings: chain shown with the change;; parent: est. 0.2 mM; read off a plot
T4 chain: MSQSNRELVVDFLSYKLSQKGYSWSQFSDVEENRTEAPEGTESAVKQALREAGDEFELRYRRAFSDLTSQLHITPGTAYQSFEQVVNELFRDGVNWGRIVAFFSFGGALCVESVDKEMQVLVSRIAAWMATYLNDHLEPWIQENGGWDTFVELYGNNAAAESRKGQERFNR

[8] = target: human BclxLΔTM (soluble domain of BclxL, transmembrane helix deleted) (human) (UniProt Q07817); remark: listed apart in the source
[9] = target: human BclxLΔLT (BclxL without the flexible loop and the transmembrane helix) (human) (UniProt Q07817); test: NMR titration; alanine scan: VDAC1-N peptides titrated into 100 µM 2H,15N-BclxLΔLT; 20 mM NaPi pH 7.0, 50 mM NaCl, 0.5 mM EDTA, 5 mM DTT; KD from chemical shift perturbations, one-site binding model
[10] = target: human BclxLΔLT (BclxL without the flexible loop and the transmembrane helix) (human, UniProt Q07817-1 1-212, flexible loop (residues 44–84) deleted); test: NMR

T1 sequence (Q07817 with tags, fused parts or gaps DEL45-84 limits assumed): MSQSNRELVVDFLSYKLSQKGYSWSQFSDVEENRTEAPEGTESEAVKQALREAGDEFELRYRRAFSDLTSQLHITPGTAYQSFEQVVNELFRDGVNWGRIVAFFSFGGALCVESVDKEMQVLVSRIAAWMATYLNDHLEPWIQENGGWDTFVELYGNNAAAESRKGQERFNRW

Molecule | Kd [1] [µM] | Kd [7] [µM] | other results
CC(C)C[C@H](NC(=O)[C@H](CC(=O)O)NC(=O)[C@H](C)NC(=O)[C@@H](N)Cc1ccc(O)cc1)C(=O)N[C@@H](C)C(=O)N[C@@H](CCCCN)C(=O)N[C@@H](CO)C(=O)N[C@@H](C)C(=O)N[C@@H](CCCNC(=N)N)C(=O)N[C@@H](CC(=O)O)C(=O)N[C@H](C(=O)N[C@@H](Cc1ccccc1)C(=O)N[C@H](C(=O)N[C@@H](CCCCN)C(=O)NCC(=O)O)[C@@H](C)O)C(C)C [G11A] (H-YADLAKSARDVFTKG-OH) | 609 | – | –
CC(C)C[C@H](NC(=O)[C@H](CC(=O)O)NC(=O)[C@H](C)NC(=O)[C@@H](N)Cc1ccc(O)cc1)C(=O)N[C@@]1(C)CCCC=CCCC[C@@](C)(C(=O)N[C@@H](CC(=O)O)C(=O)N[C@H](C(=O)N[C@@H](Cc2ccccc2)C(=O)N[C@H](C(=O)N[C@@H](CCCCN)C(=O)NCC(=O)O)[C@@H](C)O)C(C)C)NC(=O)[C@H](C)NC(=O)[C@H](CO)NC(=O)[C@H](CCCCN)NC1=O [stVDAC1-N] (H-YADL[S5]KSA[S5]DVFTKG-OH; staple 5-9; N-terminus and C-terminus assumed) | – | – | effect on pore-forming activity of BclxL-inhibited Bak (in words) [2]: concentration-dependent rescue of the pore-forming activity of Bak
CC(C)C[C@H](NC(=O)[C@H](CC(=O)O)NC(=O)[C@H](C)NC(=O)[C@@H](N)Cc1ccc(O)cc1)C(=O)NCC(=O)N[C@@H](CCCCN)C(=O)N[C@@H](CO)C(=O)N[C@@H](C)C(=O)N[C@@H](CCCNC(=N)N)C(=O)N[C@@H](CC(=O)O)C(=O)N[C@H](C(=O)N[C@@H](Cc1ccccc1)C(=O)N[C@H](C(=O)N[C@@H](CCCCN)C(=O)NCC(=O)O)[C@@H](C)O)C(C)C [VDAC1 wt] | 165 | – | –
CC(C)C[C@H](NC(=O)[C@H](C)NC(=O)[C@H](C)NC(=O)[C@@H](N)Cc1ccc(O)cc1)C(=O)NCC(=O)N[C@@H](CCCCN)C(=O)N[C@@H](CO)C(=O)N[C@@H](C)C(=O)N[C@@H](CCCNC(=N)N)C(=O)N[C@@H](CC(=O)O)C(=O)N[C@H](C(=O)N[C@@H](Cc1ccccc1)C(=O)N[C@H](C(=O)N[C@@H](CCCCN)C(=O)NCC(=O)O)[C@@H](C)O)C(C)C [D9A] (H-YAALGKSARDVFTKG-OH) | 1070 | – | –
CC(C)[C@H](NC(=O)[C@H](CC(=O)O)NC(=O)[C@H](CCCNC(=N)N)NC(=O)[C@H](C)NC(=O)[C@H](CO)NC(=O)[C@H](CCCCN)NC(=O)CNC(=O)[C@H](C)NC(=O)[C@H](CC(=O)O)NC(=O)[C@H](C)NC(=O)[C@@H](N)Cc1ccc(O)cc1)C(=O)N[C@@H](Cc1ccccc1)C(=O)N[C@H](C(=O)N[C@@H](CCCCN)C(=O)NCC(=O)O)[C@@H](C)O [L10A] (H-YADAGKSARDVFTKG-OH) | 4030 | – | –
CC(C)C[C@H](NC(=O)[C@H](CC(=O)O)NC(=O)[C@H](C)NC(=O)[C@@H](N)Cc1ccc(O)cc1)C(=O)NCC(=O)N[C@@H](CCCCN)C(=O)N[C@@H](CO)C(=O)N[C@@H](C)C(=O)N[C@@H](CCCNC(=N)N)C(=O)N[C@@H](CC(=O)O)C(=O)N[C@H](C(=O)N[C@@H](Cc1ccccc1)C(=O)N[C@@H](C)C(=O)N[C@@H](CCCCN)C(=O)NCC(=O)O)C(C)C [T19A] (H-YADLGKSARDVFAKG-OH) | 201 | – | –
CC(C)C[C@H](NC(=O)[C@H](CC(=O)O)NC(=O)[C@H](C)NC(=O)[C@@H](N)Cc1ccc(O)cc1)C(=O)NCC(=O)N[C@@H](CCCCN)C(=O)N[C@@H](C)C(=O)N[C@@H](C)C(=O)N[C@@H](CCCNC(=N)N)C(=O)N[C@@H](CC(=O)O)C(=O)N[C@H](C(=O)N[C@@H](Cc1ccccc1)C(=O)N[C@H](C(=O)N[C@@H](CCCCN)C(=O)NCC(=O)O)[C@@H](C)O)C(C)C [S13A] (H-YADLGKAARDVFTKG-OH) | 408 | – | –
CC(C)C[C@H](NC(=O)[C@H](CC(=O)O)NC(=O)[C@H](C)NC(=O)[C@@H](N)Cc1ccc(O)cc1)C(=O)NCC(=O)N[C@@H](CCCCN)C(=O)N[C@@H](CO)C(=O)N[C@@H](C)C(=O)N[C@@H](CCCNC(=N)N)C(=O)N[C@@H](CC(=O)O)C(=O)N[C@H](C(=O)N[C@@H](C)C(=O)N[C@H](C(=O)N[C@@H](CCCCN)C(=O)NCC(=O)O)[C@@H](C)O)C(C)C [F18A] (H-YADLGKSARDVATKG-OH) | 367 | – | –
wild-type VDAC1-N peptide of the alanine scanning set | – | – | rescue of cBid-activated Bak pore formation inhibited by BclxL (liposome permeabilization), 100 µM peptide [3]: 80%
CC(C)C[C@H](NC(=O)[C@H](CC(=O)O)NC(=O)[C@H](C)NC(=O)[C@@H](N)Cc1ccc(O)cc1)C(=O)NCC(=O)N[C@@H](CCCCN)C(=O)N[C@@H](CO)C(=O)N[C@@H](C)C(=O)N[C@@H](CCCNC(=N)N)C(=O)N[C@@H](C)C(=O)N[C@H](C(=O)N[C@@H](Cc1ccccc1)C(=O)N[C@H](C(=O)N[C@@H](CCCCN)C(=O)NCC(=O)O)[C@@H](C)O)C(C)C [D16A] (H-YADLGKSARAVFTKG-OH) | 1260 | – | –
CC(C)C[C@H](NC(=O)[C@H](CC(=O)O)NC(=O)[C@H](C)NC(=O)[C@H](C)N)C(=O)NCC(=O)N[C@@H](CCCCN)C(=O)N[C@@H](CO)C(=O)N[C@@H](C)C(=O)N[C@@H](CCCNC(=N)N)C(=O)N[C@@H](CC(=O)O)C(=O)N[C@H](C(=O)N[C@@H](Cc1ccccc1)C(=O)N[C@H](C(=O)N[C@@H](CCCCN)C(=O)NCC(=O)O)[C@@H](C)O)C(C)C [Y7A] (H-AADLGKSARDVFTKG-OH) | 446 | – | –
hydrocarbon-stapled VDAC1 peptide encompassing residues 7–21 (stVDAC1-N) (from UniProt P21796 7-21) | – | – | Kd [4]: 2 µM
CC(C)C[C@H](NC(=O)[C@H](CC(=O)O)NC(=O)[C@H](C)NC(=O)[C@@H](N)Cc1ccc(O)cc1)C(=O)NCC(=O)N[C@@H](CCCCN)C(=O)N[C@@H](CO)C(=O)N[C@@H](C)C(=O)N[C@@H](CCCNC(=N)N)C(=O)N[C@@H](CC(=O)O)C(=O)N[C@@H](C)C(=O)N[C@@H](Cc1ccccc1)C(=O)N[C@H](C(=O)N[C@@H](CCCCN)C(=O)NCC(=O)O)[C@@H](C)O [V17A] (H-YADLGKSARDAFTKG-OH) | 713 | – | –
MAVPPTYADLGKSARDVFTKGYGFGL (peptide, UniProt P21796 1-26, looked up, VDAC1, human, N-terminal residues 1-26; Isotope-labelled (13C and 15N) for NMR; The same stretch 1-26 stands fused to the C-terminus of BclxLΔLT in m8; the row of the crystal structure uses m6 for that stretch; also called VDAC1-N (1–26); 15N-labeled VDAC1-N; source: E. coli, as His6-GB1-TEV fusion, Ni-NTA, TEV digestion, reverse Ni-NTA; not shown: His6, N-terminal, cleaved; GB1, N-terminal, …) [VDAC1-N peptide (residues 1–26)] | – | – | binding result [5]: binds; binding result [6]: binds
MAVPPTYADLGKSARDVATKGYGF [wild-type VDAC1-N peptide of the alanine scanning set F18A] | – | 300 | –
MAVPPTYADLAKSARDVFTKGYGF [wild-type VDAC1-N peptide of the alanine scanning set G11A] | – | 500 | –
MAVPPTYADLGKAARDVFTKGYGF [wild-type VDAC1-N peptide of the alanine scanning set S13A] | – | 400 | –
MAVPPTYADLGKSARDVFAKGYGF [wild-type VDAC1-N peptide of the alanine scanning set T19A] | – | 200 | –
NLWAAQRYGRELRRMSDEFEGSFKGL [Bad-BH3 peptide (residues 140–165)] | – | – | recovery of cBid-activated Bak pore formation inhibited by BclxL (liposome permeabilization); Bad-BH3 1 to 100 nM [8]: 50 nM
MAVPPTYAALGKSARDVFTKGYGF [wild-type VDAC1-N peptide of the alanine scanning set D9A] | – | 1000 | –
MAVPPTYADAGKSARDVFTKGYGF [VDAC1-N L10A peptide] | – | 4000 | fold reduction in affinity against wild-type VDAC1-N [9]: 20 fold; Kd [10]: ~9000 µM
MAVPPTAADLGKSARDVFTKGYGF [wild-type VDAC1-N peptide of the alanine scanning set Y7A] | – | 400 | –
MAVPPTYADLGKSARDAFTKGYGF [wild-type VDAC1-N peptide of the alanine scanning set V17A] | – | 600 | –
MAVPPTYADLGKSARAVFTKGYGF [wild-type VDAC1-N peptide of the alanine scanning set D16A] | – | 1200 | –
